Assay results: PMC3531493, “Inhibition of a NEDD8 Cascade Restores Restriction of HIV by APOBEC3G” (PLoS Pathogens, 2012)

Assays:
[1] = target: CUL5/RBX2 complex (UniProt Q93034)
[2] = target: T1, UBE2F, full-length (UniProt Q969M7 1-185); assay: NMR titration; 15N-HSQC of 50 µM 15N-labelled RBX2 RING with unlabelled E2 added (∼100 µM in Fig. 3D; increasing concentrations in Fig. 5D); 20°C; 100 mM NaCl, 1 mM DTT, 25 mM HEPES pH 7.5; conditions: both partners purified
T1 construct: UBE2F, NEDD8-conjugating enzyme, full-length; Unlabelled in the HSQC experiments on 15N-labelled RBX2 RING; also called NEDD8 E2; NEDD8-conjugating enzyme UBE2F; source: E. coli BL21(DE3)-Star or BL21(DE3), purified (Ni-NTA, TEV cleavage, SEC)
T1 sequence (looked up): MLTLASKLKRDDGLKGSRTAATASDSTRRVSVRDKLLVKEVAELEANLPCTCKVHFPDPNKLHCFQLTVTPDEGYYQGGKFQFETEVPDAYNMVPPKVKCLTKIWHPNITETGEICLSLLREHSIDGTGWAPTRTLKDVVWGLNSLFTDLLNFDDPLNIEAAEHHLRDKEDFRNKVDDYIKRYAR

[3] = target: T2, UBE2F residues 26-185 (UBE2F core) (UniProt Q969M7 26-185); assay: as above; conditions: both partners purified
T2 construct: UBE2F, residues 26-185 (UBE2F core); Unlabelled when added to 15N RBX2 RING; 15N-labelled when RBX2 RING was added to it; source: E. coli BL21(DE3)-Star or BL21(DE3), purified (Ni-NTA, TEV cleavage, SEC)
T2 sequence (looked up): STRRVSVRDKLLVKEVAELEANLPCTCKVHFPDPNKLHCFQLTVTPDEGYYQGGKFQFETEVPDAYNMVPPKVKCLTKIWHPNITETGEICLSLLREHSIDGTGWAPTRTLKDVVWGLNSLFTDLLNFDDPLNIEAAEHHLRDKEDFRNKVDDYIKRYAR

Sequence of CUL5/RBX2 complex (Q93034 whole entry, one chain of several): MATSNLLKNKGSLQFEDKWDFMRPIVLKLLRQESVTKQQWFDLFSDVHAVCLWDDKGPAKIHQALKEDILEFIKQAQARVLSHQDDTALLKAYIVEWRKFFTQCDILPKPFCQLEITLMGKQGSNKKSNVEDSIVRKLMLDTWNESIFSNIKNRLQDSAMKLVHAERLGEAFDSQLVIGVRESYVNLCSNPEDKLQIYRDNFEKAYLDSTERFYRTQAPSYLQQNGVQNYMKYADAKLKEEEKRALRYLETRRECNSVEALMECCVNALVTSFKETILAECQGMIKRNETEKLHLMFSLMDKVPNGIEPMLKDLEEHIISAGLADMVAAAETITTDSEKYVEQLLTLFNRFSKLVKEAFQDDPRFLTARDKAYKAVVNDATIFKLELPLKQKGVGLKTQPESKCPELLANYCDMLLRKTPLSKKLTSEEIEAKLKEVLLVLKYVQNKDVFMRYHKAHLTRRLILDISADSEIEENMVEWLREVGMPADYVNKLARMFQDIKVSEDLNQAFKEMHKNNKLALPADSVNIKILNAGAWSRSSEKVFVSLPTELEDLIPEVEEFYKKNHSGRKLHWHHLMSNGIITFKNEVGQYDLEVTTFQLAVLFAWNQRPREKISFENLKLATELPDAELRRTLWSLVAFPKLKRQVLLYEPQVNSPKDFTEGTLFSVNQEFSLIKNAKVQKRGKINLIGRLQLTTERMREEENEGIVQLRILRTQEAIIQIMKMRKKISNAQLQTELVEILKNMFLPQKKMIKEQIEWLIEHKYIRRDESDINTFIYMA

| Molecule | rate of NEDD8 transfer from UBE2F mutant to CUL5/RBX2 (pulse-chase), against wild-type UBE2F (orders of magnitude (reduction)) [1] | binding result [2] | binding result [3] |
| --- | --- | --- | --- |
| UBE2F (N92A) (from UniProt Q969M7 26-185) (enzyme) | 3 | – | – |
| RBX2 RING domain (44-113) (domain or fragment, UniProt Q9UBF6 44-113, looked up, RBX2 (RING-box protein 2), RING domain, residues 44-113; 15N-labelled when the E2 enzymes were added to it; unlabelled when added to 15N UBE2F core; also called RBX2 core domain; source: E. coli BL21(DE3)-Star or BL21(DE3), with ZnCl2, purified (Ni-NTA, TEV cleavage, SEC)) DVECDTCAICRVQVMDACLRCQAENKQEDCVVVWGECNHSFHNCCMSLWVKQNNRCPLCQQDWVVQRIGK | – | binds | binds |
